According to PMC7982615, “Phase 1 study of telisotuzumab vedotin in Japanese patients with advanced solid tumors” (Cancer Medicine, 2021):

Assay: Safety and tolerability (TEAEs, DLTs, AESIs) in phase 1 dose-escalation study of teliso‐v
Type: in vivo, human
Experimental: This phase 1, open‐label, dose‐escalation clinical trial was conducted at two sites in Japan (NCT03311477). Enrollment began on November 6, 2017, and the trial was completed on March 4, 2019.
Escalation into the higher dose level proceeded if the first three evaluable patients in the lower dose level completed the first‐cycle (for at least 21 days) safety assessment without experiencing a dose‐limiting toxicity (DLT). DLT evaluations for dose escalation and determination of RP2D were carried out by investigators, study sponsor, and an independent safety monitor. […] No premedication was required. On the basis of confirmed availability of archival tumor tissue at enrollment, patients were retrospectively analyzed for c‐Met expression and MET amplification. c‐Met expression was determined by immunohistochemistry (IHC), and MET amplification was determined by fluorescence in situ hybridization or sequencing of plasma or tumor DNA.
Safety assessments included treatment‐emergent adverse events (TEAEs) graded according to the National Cancer Institute Common Terminology Criteria for Adverse Events version 4.03. TEAEs, vital signs, physical examinations, electrocardiograms, laboratory tests, and ECOG performance status were monitored during the study. Any grade ≥3 study drug‐related nonhematologic toxicity was documented as a DLT, except as follows: grade 3 nausea or vomiting lasting ≤48 hours that was successfully managed with antiemetics; grade 3 diarrhea successfully managed with antidiarrheal; grade 3 constipation lasting ≤7 days; grade 3 acute infusion reaction that resolved to grade ≤1 within 24 hours after the end of dosing; grade 3 and 4 laboratory tests including but not limited to lactate dehydrogenase, alkaline phosphatase, and gamma‐glutamyl transferase that were considered nonclinically significant by the investigator; liver function test abnormalities; grade 3 and 4 electrolyte imbalance unless associated with clinical symptomatology despite supplementation; and grade 3 hyperglycemia that was manageable without hospitalization. The following hematologic toxicities were documented as a DLT: any grade 4 hematologic toxicity (excluding febrile neutropenia or leukopenia lasting for ≤7 days, or lymphopenia); anemia requiring red blood cell transfusion; thrombocytopenia requiring platelet transfusion; grade 3 thrombocytopenia in the presence of grade ≥2 bleeding; and grade ≥3 febrile neutropenia. Toxicity management criteria are described in the Supplementary appendix.
All data were summarized and tabulated by dose cohort. Categoric data were summarized in terms of frequency counts and percentages. Continuous data were summarized using descriptive statistics, including number of observations, mean, standard deviation, median, minimum, and maximum. No formal statistical analysis was performed for efficacy variables, which were all exploratory in nature. ORR was defined as the proportion of patients with a confirmed partial response (PR) or complete response (CR). Duration of response was defined as time from a patient's initial objective response to the first date of disease progression (PD) or death. The overall disease control rate was defined as the proportion of patients with CR, PR, or stable disease (SD). […] PFS was estimated using the Kaplan–Meier method. Efficacy analyses are presented with two‐sided exact 95% binomial CI.

## Teliso‐v: antibody‐drug conjugate: anti–c‐Met humanized monoclonal antibody ABT‐700 coupled to monomethyl auristatin E through a valine‐citrulline linker, drug:antibody ratio approximately three
2.4 mg/kg Q3W, n = 3
  Alanine aminotransferase increased, TEAE regardless of relationship: 0 n (%)
  Alanine aminotransferase increased, TEAE related to teliso‐v: 0 n (%)
  Alopecia, TEAE regardless of relationship: 0 n (%)
  Alopecia, TEAE related to teliso‐v: 0 n (%)
  Anemia, TEAE regardless of relationship: 1 (33) n (%)
  Aspartate aminotransferase increased, TEAE regardless of relationship: 0 n (%)
  Aspartate aminotransferase increased, TEAE related to teliso‐v: 0 n (%)
  Back pain, TEAE regardless of relationship: 1 (33) n (%)
  Constipation, TEAE regardless of relationship: 0 n (%)
  Decreased appetite, TEAE regardless of relationship: 2 (67) n (%)
  Decreased appetite, TEAE related to teliso‐v: 2 (67) n (%)
  Diarrhea, TEAE regardless of relationship: 1 (33) n (%)
  Fatigue, TEAE regardless of relationship: 1 (33) n (%)
  Fatigue, TEAE related to teliso‐v: 1 (33) n (%)
  Hypoalbuminemia, TEAE regardless of relationship: 0 n (%)
  Malaise, TEAE regardless of relationship: 2 (67) n (%)
  Malaise, TEAE related to teliso‐v: 2 (67) n (%)
  Nausea, TEAE regardless of relationship: 1 (33) n (%)
  Nausea, TEAE related to teliso‐v: 1 (33) n (%)
  Neutrophil count decreased, TEAE regardless of relationship: 0 n (%)
  Neutrophil count decreased, TEAE related to teliso‐v: 0 n (%)
  Peripheral neuropathy, TEAE regardless of relationship: 2 (67) n (%)
  Peripheral neuropathy, TEAE related to teliso‐v: 2 (67) n (%)
  Peripheral sensory neuropathy, TEAE regardless of relationship: 1 (33) n (%)
  Peripheral sensory neuropathy, TEAE related to teliso‐v: 1 (33) n (%)
  Punctate keratitis, TEAE regardless of relationship: 1 (33) n (%)
  Punctate keratitis, TEAE related to teliso‐v: 1 (33) n (%)
  Weight decreased, TEAE regardless of relationship: 1 (33) n (%)
  Weight decreased, TEAE related to teliso‐v: 1 (33) n (%)
  White blood cell count decreased, TEAE regardless of relationship: 0 n (%)
  White blood cell count decreased, TEAE related to teliso‐v: 0 n (%)
2.7 mg/kg Q3 W, Japanese patients
  Tolerability: well‐tolerated
2.7 mg/kg Q3W, n = 6
  Alanine aminotransferase increased, TEAE regardless of relationship: 2 (33) n (%)
  Alanine aminotransferase increased, TEAE related to teliso‐v: 2 (33) n (%)
  Alopecia, TEAE regardless of relationship: 2 (33) n (%)
  Alopecia, TEAE related to teliso‐v: 2 (33) n (%)
  Anemia, TEAE regardless of relationship: 1 (17) n (%)
  Aspartate aminotransferase increased, TEAE regardless of relationship: 2 (33) n (%)
  Aspartate aminotransferase increased, TEAE related to teliso‐v: 2 (33) n (%)
  Back pain, TEAE regardless of relationship: 1 (17) n (%)
  Constipation, TEAE regardless of relationship: 2 (33) n (%)
  Decreased appetite, TEAE regardless of relationship: 1 (17) n (%)
  Decreased appetite, TEAE related to teliso‐v: 1 (17) n (%)
  Diarrhea, TEAE regardless of relationship: 1 (17) n (%)
  Fatigue, TEAE regardless of relationship: 1 (17) n (%)
  Fatigue, TEAE related to teliso‐v: 1 (17) n (%)
  Hypoalbuminemia, TEAE regardless of relationship: 2 (33) n (%)
  Malaise, TEAE regardless of relationship: 0 n (%)
  Malaise, TEAE related to teliso‐v: 0 n (%)
  Nausea, TEAE regardless of relationship: 2 (33) n (%)
  Nausea, TEAE related to teliso‐v: 2 (33) n (%)
  Neutrophil count decreased, TEAE regardless of relationship: 2 (33) n (%)
  Neutrophil count decreased, TEAE related to teliso‐v: 2 (33) n (%)
  Peripheral neuropathy, TEAE regardless of relationship: 0 n (%)
  Peripheral neuropathy, TEAE related to teliso‐v: 0 n (%)
  Peripheral sensory neuropathy, TEAE regardless of relationship: 3 (50) n (%)
  Peripheral sensory neuropathy, TEAE related to teliso‐v: 3 (50) n (%)
  Punctate keratitis, TEAE regardless of relationship: 1 (17) n (%)
  Punctate keratitis, TEAE related to teliso‐v: 1 (17) n (%)
  Weight decreased, TEAE regardless of relationship: 2 (33) n (%)
  Weight decreased, TEAE related to teliso‐v: 1 (17) n (%)
  White blood cell count decreased, TEAE regardless of relationship: 3 (50) n (%)
  White blood cell count decreased, TEAE related to teliso‐v: 3 (50) n (%)
